Measurements from the RNAGym collection of RNA variant scans (doi:10.7554/elife.80360).

B1: CPEB3 Ribozyme (parent)
chain: GGGGGCCACAGCAGAAGCGUUCACGUCGCGGCCCCUGUCAGAUUCUGGUGAAUCUGCGAAUUCUGCUGU

Variants of: B1
Experiment: self-cleavage, relative activity (ratio to wild type); higher = more cleavage; co-transcriptional
Variant A13C U53A has a self-cleavage of 0.579. For A13U G58A, the self-cleavage was 0.758. In the case of A13G A42U, the self-cleavage is reported as 0.74. A13G C57G showed a self-cleavage of 0.36. Variant A13G C57U has a self-cleavage of 0.358. With A13U G25A the self-cleavage was 0.168. A13U G37U gave a self-cleavage of 0.196. For A13U G37C, the self-cleavage was 0.186. Work on G14A C18U yielded a self-cleavage of 0.179. G14A C18A showed a self-cleavage of 0.163. G14A C18G showed a self-cleavage of 0.208. With A13U C18G the self-cleavage was 0.119. Work on A13U C18U yielded a self-cleavage of 0.19. Variant G14A C33A has a self-cleavage of 0.519. Variant A13U U61C has a self-cleavage of 0.32. A13U U61G gave a self-cleavage of 0.46. Variant A13U U61A has a self-cleavage of 0.456. G14A G47U gave a self-cleavage of 0.889. With G14A G47C the self-cleavage was 0.827. Variant A13U A16G has a self-cleavage of 0.589. In the case of A13U A16C, the self-cleavage is reported as 0.14. Work on A13U A16U yielded a self-cleavage of 0.34. Work on A13G C18G yielded a self-cleavage of 0.169. In the case of A13G C18A, the self-cleavage is reported as 0.0625. Work on G14A G19A yielded a self-cleavage of 0.16. For G14A G19C, the self-cleavage was 0.106. For A13G U38C, the self-cleavage was 0.938. Work on A13G U38G yielded a self-cleavage of 0.149. A13G U38A gave a self-cleavage of 0.898. G14A C57G gave a self-cleavage of 0.258. G14A C57A showed a self-cleavage of 0.264. In the case of G14A C22G, the self-cleavage is reported as 0.166. A13G U61C showed a self-cleavage of 0.402. With A13G U61G the self-cleavage was 0.53. Variant A13G U26C has a self-cleavage of 0.78. A13G U26G showed a self-cleavage of 0.935. With A13U G47A the self-cleavage was 0.893. Work on A13U G47U yielded a self-cleavage of 0.881. Variant A13G C27U has a self-cleavage of 0.168. Variant A13G A52C has a self-cleavage of 0.827. With A13G A52G the self-cleavage was 1.02. For A13G G19A, the self-cleavage was 0.155. A13G G19U gave a self-cleavage of 0.0922. A13U U69G gave a self-cleavage of 0.961. Variant A13U U69A has a self-cleavage of 0.89. With A13U U69C the self-cleavage was 1. With A13G G50A the self-cleavage was 0.896. With A13G G50U the self-cleavage was 0.973. For A13G G50C, the self-cleavage was 0.881. Work on A13U G30U yielded a self-cleavage of 0.228. Variant A13U G30C has a self-cleavage of 0.393. With A13U G30A the self-cleavage was 0.487. With A13U A42U the self-cleavage was 0.494. Variant A13U A42G has a self-cleavage of 0.645. For G14A C54A, the self-cleavage was 0.239. Variant A13U C35G has a self-cleavage of 0.258. With A13U A60G the self-cleavage was 0.398. Variant A13U A60U has a self-cleavage of 0.356. Work on A13G A59C yielded a self-cleavage of 0.522. In the case of A13G A59G, the self-cleavage is reported as 0.946. For A13G A59U, the self-cleavage was 0.57. A13U C39G showed a self-cleavage of 0.508. Work on A13U C39A yielded a self-cleavage of 0.394. In the case of A13C U55C, the self-cleavage is reported as 0.439. A13U G56A gave a self-cleavage of 0.688. Variant A13U G56C has a self-cleavage of 0.31. A13G A15G showed a self-cleavage of 0.82. With A13G A15C the self-cleavage was 0.196. A13G G37A gave a self-cleavage of 0.172. With A13G G37C the self-cleavage was 0.109. With A13G G37U the self-cleavage was 0.184. For G14A G50A, the self-cleavage was 0.778. G14A G50U gave a self-cleavage of 0.743. Variant G14A G50C has a self-cleavage of 0.61. In the case of A13G U53G, the self-cleavage is reported as 0.737. A13G U53A gave a self-cleavage of 0.87. For A13G U53C, the self-cleavage was 0.628. For G14A G41A, the self-cleavage was 0.196. Work on G14A G37A yielded a self-cleavage of 0.191. Work on A13G C35G yielded a self-cleavage of 0.446. A13C G50C showed a self-cleavage of 0.787. Work on A13C G50U yielded a self-cleavage of 0.909. Variant A13C U26C has a self-cleavage of 0.692. For A13C U26G, the self-cleavage was 0.113. In the case of A13C U26A, the self-cleavage is reported as 0.615. In the case of G14A C66U, the self-cleavage is reported as 0.375. Work on G14A C66A yielded a self-cleavage of 0.262. Variant G14A C66G has a self-cleavage of 0.287. With A13G A60U the self-cleavage was 0.282. In the case of A13G A60C, the self-cleavage is reported as 0.268. A13G A60G showed a self-cleavage of 0.66. In the case of A13G C54G, the self-cleavage is reported as 0.772. Variant A13G C54A has a self-cleavage of 0.642. With A13C U62G the self-cleavage was 0.355. A13U U21A showed a self-cleavage of 0.785. A13U U21G gave a self-cleavage of 0.173. For A13U U21C, the self-cleavage was 0.691. In the case of A13C U46C, the self-cleavage is reported as 0.761. With A13U U64A the self-cleavage was 0.945. A13U U64C gave a self-cleavage of 0.853. With A13U U64G the self-cleavage was 0.969. A13U U46C gave a self-cleavage of 0.873. A13U U46A gave a self-cleavage of 0.942. A13U U46G gave a self-cleavage of 0.905. G14A C35U gave a self-cleavage of 0.668. Work on G14A G30A yielded a self-cleavage of 0.235. Variant A13G C33G has a self-cleavage of 0.638. A13G U44G showed a self-cleavage of 0.826. For A13G G65U, the self-cleavage was 0.561. In the case of A13G C63G, the self-cleavage is reported as 0.504. Work on A13G C63U yielded a self-cleavage of 0.842. Variant A13G C63A has a self-cleavage of 0.26. With A13U G14A the self-cleavage was 0.328. A13U G14U gave a self-cleavage of 0.437. With G14A C32A the self-cleavage was 0.336. G14A C32G showed a self-cleavage of 0.212. With A13G U49A the self-cleavage was 0.95. A13U G17U gave a self-cleavage of 0.163. With A13U G17A the self-cleavage was 0.102. For A13C U49C, the self-cleavage was 0.842. Variant A13C U49G has a self-cleavage of 0.933. For A13C U49A, the self-cleavage was 0.922. A13U C66A gave a self-cleavage of 0.323. In the case of A13U C66U, the self-cleavage is reported as 0.583. For A13U A52C, the self-cleavage was 0.8. A13U A52G gave a self-cleavage of 0.902. Variant A13U A52U has a self-cleavage of 0.776. In the case of A13G U55C, the self-cleavage is reported as 0.621. Variant A13G U55G has a self-cleavage of 0.51. In the case of A13G C24A, the self-cleavage is reported as 0.54. With A13G C24U the self-cleavage was 0.712. A13U C54A gave a self-cleavage of 0.29. In the case of A13U C54U, the self-cleavage is reported as 0.729. A13G A23C gave a self-cleavage of 0.781. With A13G G31A the self-cleavage was 0.775. A13G G31U gave a self-cleavage of 0.555. With A13U A59C the self-cleavage was 0.33. For A13U A59G, the self-cleavage was 0.784. A13U A51G showed a self-cleavage of 0.837. With A13U A51C the self-cleavage was 0.828. A13U A51U showed a self-cleavage of 0.858. A13U U20C showed a self-cleavage of 0.145. For A13U U20G, the self-cleavage was 0.185. A13U A40G gave a self-cleavage of 0.607. A13C U43A showed a self-cleavage of 0.514. A13C U43G gave a self-cleavage of 0.32. G14A A16U gave a self-cleavage of 0.353. Work on G14A A16G yielded a self-cleavage of 0.463. In the case of G14A A16C, the self-cleavage is reported as 0.136. Variant G14A C45G has a self-cleavage of 0.638. G14A C45U showed a self-cleavage of 0.778. Work on G14A C45A yielded a self-cleavage of 0.612. Work on A13C G58U yielded a self-cleavage of 0.933. A13C G58A showed a self-cleavage of 0.754. With A13C G58C the self-cleavage was 0.862. G14A A23G gave a self-cleavage of 0.444. G14A A23C gave a self-cleavage of 0.582. For A13U U62A, the self-cleavage was 0.438. Work on A13C U20C yielded a self-cleavage of 0.128. With A13C U20A the self-cleavage was 0.149. For A13G U62C, the self-cleavage was 0.449. Variant A13G U62G has a self-cleavage of 0.445. A13G U62A gave a self-cleavage of 0.622. With A13G C29G the self-cleavage was 0.126. Variant A13G C29A has a self-cleavage of 0.42. For A13G C22G, the self-cleavage was 0.199. A13U G48C gave a self-cleavage of 0.872.
